Source: patent US6495664

System: GFP mutant K8 (-2M, -1G, M1R, S2R, K3R, G4A, E5S, E6I, L7I, S65A, K79R, E90N, N149K, V163A, I167T)

Question: Which “apparent Km of phosphorylation, measured by 32P incorporation” value does the source give for “mouse recombinant protein kinase A catalytic subunit (Calbiochem #539-487)” here?
Answer: an apparent Km of 9 µM

Question: And the “estimated Km of phosphorylation, based on quenching alone” value?
Answer: an estimated Km of 7.7 µM
